Reference: US20240376218A1

How the values were obtained:
human CCR8 (human) = human CCR8 (human) (UniProt P51685); assay: cell-based or functional assay
[1] = biological target: human CCR8 tagged with ProLink (human); assay: cell-based or functional assay
[2] = biological target: cynomolgus CCR8 (cynomolgus); assay: FACS, CHO cells expressing cynomolgus CCR8, signal at saturation
Chain of cynomolgus CCR8 (cynomolgus) (O97665 other isoform, or with tags, fused parts or gaps): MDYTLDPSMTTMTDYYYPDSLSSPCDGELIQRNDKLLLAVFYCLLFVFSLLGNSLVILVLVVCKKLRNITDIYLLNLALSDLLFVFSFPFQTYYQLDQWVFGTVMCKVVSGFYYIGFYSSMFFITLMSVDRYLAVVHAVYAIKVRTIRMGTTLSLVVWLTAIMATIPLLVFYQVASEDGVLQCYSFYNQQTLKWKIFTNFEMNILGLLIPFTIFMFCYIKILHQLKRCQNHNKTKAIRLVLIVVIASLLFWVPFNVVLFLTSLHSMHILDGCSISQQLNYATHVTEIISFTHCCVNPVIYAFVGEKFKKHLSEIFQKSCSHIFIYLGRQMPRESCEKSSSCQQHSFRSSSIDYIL

B1: 433H (antibody, from another filing, V domains shown)
VH: EVQLVETGGGLVQPKGSLRLSCAASGFPFNTFAMNWVRQAPGKGLEWLARIRSKSNNYATYYADSVKDRFTISRDDSRRMLYLLMNNVKFEDTAIYYCVRGKENNYGYAMDYWGQGTSVTVSS
VL: DIVMTQAAPSVPVTPGESVSISCRSSQSLLHSNGNTYLYWFLQRPGQSPQLLIYRMSNLASGVPDRFSGSGSGTAFTLRISRVEAEDVGVYYCMQHLEYPFTFGIGTKLELKR
**Q.** Which Ca flux assay IC50 (nM), block of signaling induced by CCL1 at 60 ng/ml; CHO cells expressing human CCR8 (human CCR8 (human)) does the source give for B1 here?
**A.** 1.3 nM

**Q.** And the Ca flux assay Span ratio (from max to min), block of signaling induced by CCL1 at 60 ng/ml; CHO cells expressing human CCR8 (human CCR8 (human))?
**A.** 996

**Q.** What about the Internalization [fold isotype], HuT78 cells, BODIPY FL-labelled antibody (human CCR8 (human)) of the same binder?
**A.** 22 fold isotype

**Q.** What about the IC50 in nM for inhibition of CCL1 induced β-arrestin signaling (DiscoverX assay), CHO with hCCR8 [1] of the same binder?
**A.** 0.78 nM

B2: Clone 433H (ICOS, BD) (antibody, from another filing, V domains shown)
VH: EVQLVETGGGLVQPKGSLRLSCAASGFPFNTFAMNWVRQAPGKGLEWLARIRSKSNNYATYYADSVKDRFTISRDDSRRMLYLLMNNVKFEDTAIYYCVRGKENNYGYAMDYWGQGTSVTVSS
VL: DIVMTQAAPSVPVTPGESVSISCRSSQSLLHSNGNTYLYWFLQRPGQSPQLLIYRMSNLASGVPDRFSGSGSGTAFTLRISRVEAEDVGVYYCMQHLEYPFTFGIGTKLELKR
**Q.** For B2, which MFI [2] is on record?
**A.** < 1000
